Laboratory results published in patent publication US20200399382A1 (ARGENX, published 2020).

T1: cynomolgus recombinant IL-4Rα (cynomolgus (table head: cyno/rhesus), UniProt A0A2K5V556 26-232)
T1 construct: Bought reagent; also called cyno/rhesus IL-4Rα; cyno IL-4Rα
T1 sequence: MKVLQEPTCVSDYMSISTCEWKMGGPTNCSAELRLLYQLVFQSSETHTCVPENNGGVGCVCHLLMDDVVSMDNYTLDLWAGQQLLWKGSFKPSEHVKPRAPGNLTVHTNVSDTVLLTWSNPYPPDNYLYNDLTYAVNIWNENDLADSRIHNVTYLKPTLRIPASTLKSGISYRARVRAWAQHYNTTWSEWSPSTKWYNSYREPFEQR

T2: human IL-4Rα (SPR target) (human, UniProt P24394 26-232, limits assumed)
T2 construct: also called recombinant human IL-4Rα-Fc
T2 sequence (looked up): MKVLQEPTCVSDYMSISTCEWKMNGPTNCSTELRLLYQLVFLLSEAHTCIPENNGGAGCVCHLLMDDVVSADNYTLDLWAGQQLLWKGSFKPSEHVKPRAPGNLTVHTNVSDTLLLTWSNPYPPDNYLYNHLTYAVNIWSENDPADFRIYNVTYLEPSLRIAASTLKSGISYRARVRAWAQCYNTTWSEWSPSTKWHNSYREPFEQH

T3: human IL-5 (human, UniProt P05113 20-134)
T3 sequence (looked up): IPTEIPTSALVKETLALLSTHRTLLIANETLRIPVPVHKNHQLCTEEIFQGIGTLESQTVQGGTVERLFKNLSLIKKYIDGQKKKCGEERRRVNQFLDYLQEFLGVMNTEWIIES


Assays:
[1] = target: T1, cynomolgus recombinant IL-4Rα; test: SPR (Biacore 3000), periplasmic Fab over CM5 chip coated with cyno IL-4Rα
From the text: (§1) After 3 rounds of selection, clones were selected (from round 2 and 3), and Fab was produced from the periplasmic extracts and tested by SPR.

[2] = target: T2, human IL-4Rα (SPR target); test: SPR (Biacore 3000), periplasmic Fab over CM5 chip coated with human IL-4Rα
From the text: as §1

[3] = target: T3, human IL-5; test: cell-based or functional assay
[4] = target: T3, human IL-5; test: SPR as described in Example 2

| Binder | R0 (binding) [1] | koff [1] [s⁻¹] | R0 (binding) [2] | koff [2] [s⁻¹] | IC50 (pM), proliferation assay with hIL-5 (0.25 ng/mL) [3] [pM] | Kd [4] [pM] |
| --- | --- | --- | --- | --- | --- | --- |
| 3D6wt Fab (parental 4RMP3D6 as Fab) (Fab, V domains shown, also called h4R3D6) VH: QVQLQESGGGLVQPGGSLRLSCAASGFTFSSYSLTWVRQAPGKGLEWVSTIKARGGTTLYADSVKDRFTISRDNAKNTLYLLMNSLKPEDTAVYYCAKPLYNNFAGDFGSWGQGTTVTVSS VL: DIQMTQSPSSLSASLGDRVTITCQASQSISSYLAWYQQKPGQAPKLLIYGGSRLQTGVPSRFSGSGSGTSFTLTISGLETEDLATYYCLQDYSWPLTFGQGTKVELK | 26 | 0.0017 | 204 | 0.00053 | – | – |
| 150A09 Fab (variant of 4RMP3D6) (Fab, V domains shown, Fab from periplasmic extract, with CH1 and CK constant domains; also called VH150A09) VH: QVQLQESGGGLVQPGGSLRLSCAASGFTFSSYSLTWVRQAPGKGLEWVSTIKARGGTTLYADSVKDRFTISRDNAKNTLYLLMNSLKPEDTAVYYCVKPLYSNFAGDFGSWGQGTTVTVSS VL: DIQMTQSPSSLSASLGDRVTITCQASQSISSYLAWYQQKPGQAPRLLIYGGSRLQTGVPSRFSGSGSGTSFTLTISGLETEDLATYYCQQDYSWPLTFGQGTKLEIK | 80 | 0.002 | 53 | 0.00084 | – | – |
| 153A11 Fab (variant of 4RMP3D6) (Fab, V domains shown, Fab from periplasmic extract, with CH1 and CK constant domains; also called VH153A11) VH: QVQLQESGGGLVQPGGSLRLSCAASGFTFSSYSLTWVRQAPGKGLEWVSTIKARGGTTLYADSVKDRFTISRDNAKNTLYLQMNSLKPEDTAVYYCAKPLYSNLAGDFGSWGQGTTVTVSS VL: DIQMTQSPSSLSASLGDRVTITCQASQSISSYLAWYQQKSGQAPKLLIYGGSRLQTGVPSRFSGSGSGTSFTLTISGLETEDLATYYCLQVYSWPLTFGQGTKLEIK | 146 | 0.00033 | 68 | 0.002 | – | – |
| 152A07 Fab (variant of 4RMP3D6) (Fab, V domains shown, also called VH152A07) VH: QVQLQESGGGLVQPGGSLRLSCAASGFTFSSYSLTWVRQAPGKGLEWVSTIKARGGTTLYADSVKDRFTISRDNAKNTLYLLMNSLKPEDTAVYYCAKPLYSNLAGDLGSWGQGTTVTVSS VL: DIQMTQSPSSLSASLGDRVTITCQASQSISSYLAWYQQKPGQAPKLLIYGGSRLQTGVPSRFSGSGSGTSFTLTISGLETEDLATYYCLQDYSWPLTFGQGTKLEIK | 94 | 0.0017 | 58 | 0.00069 | – | – |
| 152B10 Fab (variant of 4RMP3D6) (Fab, V domains shown, Fab from periplasmic extract, with CH1 and CK constant domains; also called VH152B10) VH: QVQLQESGGGLVQPGGSLRLSCAASGFTFSSYSLTWVRQAPGKGLEWVSTIKARGGTTLYADSVKDRFTISRDNAKNTLYLLVNSLKPEDTAVYYCAKPLYNNLAGDFGSWGQGTTVTVSS VL: DIQMTQSPSSLSASLGDRVTITCQASQSISSYLAWYQQKPGQAPKLLIYGGSRLQAGVPSRFSGSGSGTSFTLTIGGLETEDLATYYCQQDYSWPLTFGQGTKLEIK | 170 | 0.0026 | 110 | 0.0012 | – | – |
| 153E11 Fab (variant of 4RMP3D6) (Fab, V domains shown, Fab from periplasmic extract, with CH1 and CK constant domains; also called VH153E11) VH: QVQLQESGGGLVQPGGSLRLSCAASGFTFSSYSLTWVRQAPGKGLEWVSTIKARGGTTLYADSVKDRFTISRDNAKNTLYLLMNSLKPEDTAVYYCAKPLYNNFAGHFGSWGQGTTVTVSS VL: DIQMTQSPSSLSASLGDRVTITCQASQSISSYLAWYQQKPGQAPKLLIYGGSRLQTGVPSRFSGSGSGTSFTLTISGLETEDLATYYCQQDYSWPLTFGQGTKLEIK | 78 | 0.0014 | 56 | 0.00043 | – | – |
| h5MP90E7 human IL-5 mAb (antibody, V domains shown) VH: EVQLVESGGGLVQPGGSLRLSCAASGFAFSSSFMSWVRQAPGKGLEWVSTINGNGGTYYADSMKGRFTISRDNVKSTVTLQMNSLKPEDTAVYYCAADWISGGYYFPALGYWGQGTQVTVSS VL: SYELTQSPSVSVALRQTAKITCGGNNIGSKSAQWYQQKPGQAPVLVIYADSRRPSGIPERFSGSNSGNTATLTISGAQAEDEADYYCQVWDVSTNAAVFGGGTHLSVL | – | – | – | – | 8.84 | 129 |
| h5MP90G7 human IL-5 mAb (antibody, V domains shown) VH: EVQLVESGGGLVQPGGSLRLSCAASGFAFSSSFMSWVRQAPGKGLEWVSTINGNGGTYYADSMKGRFTISRDNVKSTVTLQMNSLKPEDTAVYYCAADWISGGYYFPALGYWGQGTQVTVSS VL: SYELTQSPSVSVALRQTAKITCGGNNIGRKSAQWYQQKPGQAPVLVIYADSRRPSGIPERFSGSNSGNTATLTISGAQAEDEADYYCQVWDSSANAAVFGGGTHLTVL | – | – | – | – | 1.61 | 113 |
| h5MP90D9 human IL-5 mAb (antibody, V domains shown) VH: EVQLVESGGGLVQPGGSLRLSCAASGFAFSSSFMSWVRQAPGKGLEWVSTINGNGGTYYADSMKGRFTISRDNVKSTVTLQMNSLKPEDTAVYYCAADWISGGYYFPALGYWGQGTQVTVSS VL: SYELTQSPSVSVALRQTAKITCGGNNIGSLSTQWYQQKPGQAPVLVIYADNRRPSGIHERFSGSNSGNTATLTIGGAQAEDEADYYCQVWDNSANALVFGGGTHLTVL | – | – | – | – | 6.84 | 26.4 |
| h5MP26H7 human IL-5 mAb (antibody, V domains shown) VH: EVQLVESGGGLVQPGGSLRLSCAASGFAFSSSFMSWVRQAPGKGLEWVSTINGNGGTYYADSMKGRFTISRDNVKSTVTLQMNSLKPEDTAVYYCAADWISGGYYFPALGYWGQGTQVTVSS VL: SYELTQSPSVSVAQTQTAKITCGGDNIGSKSVQWYQQKPGQAPVLAIYADTRRPSGIPERFSGSNSGNTATLTITGAQAEDEADYYCQVWDTSTNVAVFGGGTRLTIL | – | – | – | – | 37.5 | 74.9 |
| h5MP90A9 human IL-5 mAb (antibody, V domains shown) VH: EVQLVESGGGLVQPGGSLRLSCAASGFAFSSSFMSWVRQAPGKGLEWVSTINGNGGTYYADSMKGRFTISRDNVKSTVTLQMNSLKPEDTAVYYCAADWISGGYYFPALGYWGQGTQVTVSS VL: SYELTQSPSLSVALRQTAKMTCGGNKIGSKSAQWYQQKPGQAPVLVIYADSRRPSGIPERFAGSNAGNTATLTISGAQAEDEADYYCQVWDISANAAVFGGGTHLTVL | – | – | – | – | 4.99 | 83.5 |
| h5MP90C8 human IL-5 mAb (antibody, V domains shown) VH: EVQLVESGGGLVQPGGSLRLSCAASGFAFSSSFMSWVRQAPGKGLEWVSTINGNGGTYYADSMKGRFTISRDNVKSTVTLQMNSLKPEDTAVYYCAADWISGGYYFPALGYWGQGTQVTVSS VL: SYELTQSPSVSVALRQTAKITCGGDNIGSKSAQWYQQSPGQAPVLVIYADASRPSGIPERFSGSNSGNTATLTISGARAEDEADYYCQVWDTSTNAAVFGGGTHLTVL | – | – | – | – | 6.93 | 133 |
